US20110311446A1 (DYAX, published 2011)

Experiments:
[1] = molecular target: T1, cMet-Fc fusion protein (human, UniProt P08581 25-932); experiment: phage protein ELISA, cMet-Fc vs TRAIL-Fc
T1 construct: extracellular domain; also called soluble cMet-Fc fusion protein; cMet-Fc (R&D Systems); not shown: Fc part, not described
Procedure: Protein phage ELISAs using peptide-displaying phage isolates from the various selection campaigns were performed to determine specificity of the peptides for cMet versus an unrelated Fc-fusion protein (TRAIL-Fc). Briefly, 384-well plates were coated overnight at 4 C with 0.5 μg/mL of cMet-Fc fusion protein or TRAIL-Fc fusion protein (background). The plates were blocked for 2 hours 37 C with 3% (w/v) BSA in PBS containing 0.05% (v/v) Tween-20 (PBST). The plates were washed with PBST and 100 μL of peptide-displaying phage were added to each well. The plates were incubated for 2 hours at room temperature and washed with PBST. cMet-binding peptide-displaying phage were detected using an HRP-conjugated anti-M13 antibody.

[2] = molecular target: T1, cMet-Fc fusion protein; experiment: phage ELISA on cMet-Fc, competitor HGF 100 ng/mL
Procedure: (§1) These assays were conducted using the peptide-displaying phage discovered from the initial selection and screening campaigns using the first generation peptide libraries. Briefly, 96-well plates were coated overnight at 4 C with 0.5 μg/mL of cMet-Fc fusion protein or TRAIL-Fc fusion protein (background). The plates were blocked for 2 hours at 37 C with 3% BSA in PBST. […] This was followed by an addition of 30 μL of peptide-displaying phage overnight culture to each well. The plates were incubated for 2 hours at room temperature, washed with PBST and cMet-binding peptide-displaying phage was detected using an HRP-conjugated anti-M13 antibody.

[3] = molecular target: T1, cMet-Fc fusion protein; experiment: phage ELISA on cMet-Fc, competitor HGF 500 ng/mL
Procedure: as §1

[4] = molecular target: T2, human cMet on 3T3 cells (human, UniProt P08581 25-1390); experiment: phage whole cell ELISA, 3T3 human cMet vs 3T3
T2 construct: whole, on cells; also called cell surface-expressed human cMet
Procedure: Whole cell ELISAs were performed using 3T3 cells that over-express human cMet. […] Briefly, 96-well plates were seeded with 10⁵ cells per well. The plates were centrifuged for 5 minutes at 1600 rpm to pellet the cells. The resulting cell layer was fixed with 0.1% (v/v) glutaraldehyde for 12 minutes at 37 C. […] Peptide-displaying phage also were blocked in the above solution for 1 hour at 37 C. 100 μL of blocked phage was then added to each well and the plates were incubated for 1 hour at room temperature. The plates were washed with PBST. cMet-binding peptide-displaying phage were detected using an HRP-conjugated anti-M13 antibody.

T1 sequence (P08581 25-932): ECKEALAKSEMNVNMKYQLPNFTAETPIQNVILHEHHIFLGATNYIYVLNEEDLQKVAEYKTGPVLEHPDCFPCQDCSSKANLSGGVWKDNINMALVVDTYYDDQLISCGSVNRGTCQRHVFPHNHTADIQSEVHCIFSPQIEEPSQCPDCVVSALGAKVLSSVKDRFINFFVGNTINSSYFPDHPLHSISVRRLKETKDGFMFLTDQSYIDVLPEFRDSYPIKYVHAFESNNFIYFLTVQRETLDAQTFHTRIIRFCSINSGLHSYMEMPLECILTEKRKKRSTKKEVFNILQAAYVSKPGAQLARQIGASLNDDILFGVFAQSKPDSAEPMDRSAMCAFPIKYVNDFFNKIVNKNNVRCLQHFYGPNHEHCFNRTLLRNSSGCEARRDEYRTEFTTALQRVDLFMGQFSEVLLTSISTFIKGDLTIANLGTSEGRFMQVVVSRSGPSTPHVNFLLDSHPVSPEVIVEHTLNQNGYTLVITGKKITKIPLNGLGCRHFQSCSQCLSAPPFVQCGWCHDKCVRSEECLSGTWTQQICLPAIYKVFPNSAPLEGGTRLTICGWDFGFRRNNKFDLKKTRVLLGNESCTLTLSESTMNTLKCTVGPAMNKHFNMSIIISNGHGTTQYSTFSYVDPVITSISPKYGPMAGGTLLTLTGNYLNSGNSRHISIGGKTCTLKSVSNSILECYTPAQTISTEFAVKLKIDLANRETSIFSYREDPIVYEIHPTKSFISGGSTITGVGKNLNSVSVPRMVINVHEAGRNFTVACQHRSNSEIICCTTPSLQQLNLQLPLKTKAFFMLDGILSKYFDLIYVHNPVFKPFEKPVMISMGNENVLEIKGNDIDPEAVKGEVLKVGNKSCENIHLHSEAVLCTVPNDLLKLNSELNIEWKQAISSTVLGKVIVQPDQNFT
T2 sequence (P08581 25-1390): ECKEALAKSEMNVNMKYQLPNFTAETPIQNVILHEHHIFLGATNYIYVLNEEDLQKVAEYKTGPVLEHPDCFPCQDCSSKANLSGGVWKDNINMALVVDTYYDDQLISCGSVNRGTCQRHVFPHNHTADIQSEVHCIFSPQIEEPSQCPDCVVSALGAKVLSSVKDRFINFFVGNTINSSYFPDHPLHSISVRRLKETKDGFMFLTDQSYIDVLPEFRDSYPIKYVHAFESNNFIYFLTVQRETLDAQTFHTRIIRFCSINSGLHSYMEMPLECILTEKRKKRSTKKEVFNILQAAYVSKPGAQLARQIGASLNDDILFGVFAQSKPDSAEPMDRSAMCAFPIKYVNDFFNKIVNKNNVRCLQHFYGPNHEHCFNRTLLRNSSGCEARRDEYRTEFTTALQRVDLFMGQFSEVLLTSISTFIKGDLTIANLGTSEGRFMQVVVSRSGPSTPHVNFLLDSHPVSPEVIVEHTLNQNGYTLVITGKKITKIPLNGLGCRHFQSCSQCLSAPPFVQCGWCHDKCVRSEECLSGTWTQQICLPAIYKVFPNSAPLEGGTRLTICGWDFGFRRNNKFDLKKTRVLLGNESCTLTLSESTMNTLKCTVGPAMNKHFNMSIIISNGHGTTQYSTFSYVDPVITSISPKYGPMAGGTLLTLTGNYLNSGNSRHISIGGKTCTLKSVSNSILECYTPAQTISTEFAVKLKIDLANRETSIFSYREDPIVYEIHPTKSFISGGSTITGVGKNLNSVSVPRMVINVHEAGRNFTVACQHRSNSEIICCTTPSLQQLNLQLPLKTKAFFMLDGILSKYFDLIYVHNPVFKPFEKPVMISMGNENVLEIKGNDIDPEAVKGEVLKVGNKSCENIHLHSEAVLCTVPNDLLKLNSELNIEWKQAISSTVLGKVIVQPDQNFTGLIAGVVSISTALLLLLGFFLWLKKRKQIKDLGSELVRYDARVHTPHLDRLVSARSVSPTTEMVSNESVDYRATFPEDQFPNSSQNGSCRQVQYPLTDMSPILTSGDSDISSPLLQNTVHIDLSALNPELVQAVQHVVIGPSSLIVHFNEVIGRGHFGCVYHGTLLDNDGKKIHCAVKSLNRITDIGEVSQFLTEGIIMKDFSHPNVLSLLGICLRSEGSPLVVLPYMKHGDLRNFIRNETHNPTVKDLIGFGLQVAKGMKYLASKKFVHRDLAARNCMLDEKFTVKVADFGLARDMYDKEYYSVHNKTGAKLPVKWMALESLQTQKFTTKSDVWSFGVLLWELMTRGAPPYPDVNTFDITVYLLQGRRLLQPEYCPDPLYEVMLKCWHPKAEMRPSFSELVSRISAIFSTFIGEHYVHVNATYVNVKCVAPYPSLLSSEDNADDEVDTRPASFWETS

B1: peptide-displaying phage 443-D04 (peptide)
peptide: GSMLGCLFEHQNKYDCYVLAP
notes: on M13 phage
fold over background [1]: 3 fold

B2: peptide-displaying phage 274-B07 (peptide)
peptide: AGETVCYWLNGWFCVDDGT
notes: on M13 phage
% of binding in the absence of HGF [2]: 343%

B3: peptide-displaying phage 546-E02 (peptide)
peptide: GSHHTCLDGFAGWRCTEVAP
notes: on M13 phage
fold over background [1]: 40.4 fold

B4: peptide-displaying phage 547-H03 (peptide)
peptide: AGETFCSGWPTFECMQWGT
notes: on M13 phage
% of binding in the absence of HGF [3]: 43%

B5: peptide-displaying phage 453-A05 (peptide)
peptide: GSGDPCSPGPSINGHCSVMAP
notes: on M13 phage
% of binding in the absence of HGF [2]: 514%

B6: peptide-displaying phage 545-A09 (peptide)
peptide: AGLPKCSGPPWFSCYYGGT
notes: on M13 phage
fold over background [4]: 1.36 fold

B7: peptide-displaying phage 115-G02 (peptide)
peptide: AQDPGFSKHSMGHGYPSKMNWG
notes: on M13 phage
% of binding in the absence of HGF [2]: 57%

B8: peptide-displaying phage 336-D07 (peptide)
peptide: AGYSVCKGYPSFECAFFGT
notes: on M13 phage
fold over background [4]: 14.3 fold

B9: peptide-displaying phage 549-G05 (peptide)
peptide: GDLLVCKFDDKFWTETCEWADP
notes: on M13 phage
fold over background [4]: 14.5 fold

B10: peptide-displaying phage 92-B05 (peptide)
peptide: AQFDRYWHFAWMDVSFSSGQSG
notes: on M13 phage
fold over background [4]: 1.23 fold

B11: peptide-displaying phage 470-C02 (peptide)
peptide: AGFWDCGWMMQDCHMHGT
notes: on M13 phage
fold over background [1]: 36.9 fold

B12: peptide-displaying phage 550-F11 (peptide)
peptide: AGQFYCSGPPTFQCIMIGT
fold over background [1]: 1.4 fold | fold over background [4]: 1.23 fold | % of binding in the absence of HGF [2]: 58% | % of binding in the absence of HGF [3]: 23%
